Experimental data published in patent publication US20200362018.

T1: S. cerevisiae (Yeast) 20S proteasome, FLAG-tagged (Pre1), P22141
T1 sequence (P22141 1-198, looked up): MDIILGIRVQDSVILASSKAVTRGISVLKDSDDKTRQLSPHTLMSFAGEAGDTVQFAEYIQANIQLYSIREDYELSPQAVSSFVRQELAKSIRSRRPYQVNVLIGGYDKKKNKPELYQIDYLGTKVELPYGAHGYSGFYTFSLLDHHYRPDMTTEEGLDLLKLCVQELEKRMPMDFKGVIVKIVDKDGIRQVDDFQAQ

T2: T. acidophilum (Archaea) 20S proteasome, P25156
T2 chain 1: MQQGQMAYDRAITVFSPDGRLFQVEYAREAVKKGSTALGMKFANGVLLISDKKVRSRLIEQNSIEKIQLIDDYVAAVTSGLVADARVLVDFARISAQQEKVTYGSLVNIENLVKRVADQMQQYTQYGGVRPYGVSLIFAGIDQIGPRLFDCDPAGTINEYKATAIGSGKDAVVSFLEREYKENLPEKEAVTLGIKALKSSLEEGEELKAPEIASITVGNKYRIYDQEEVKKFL
T2 chain 2: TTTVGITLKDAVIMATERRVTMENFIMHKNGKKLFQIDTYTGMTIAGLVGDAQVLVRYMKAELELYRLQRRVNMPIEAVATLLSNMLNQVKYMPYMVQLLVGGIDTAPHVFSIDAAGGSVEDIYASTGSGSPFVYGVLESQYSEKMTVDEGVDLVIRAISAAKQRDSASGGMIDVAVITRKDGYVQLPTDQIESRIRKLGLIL


Key:
[1] = biological target: R. norvegicus (Mammalian) 20S proteasome purified from rat liver
[2] = biological target: 20S proteasome (source not stated for the experiment)
[3] = biological target: T1, S. cerevisiae (Yeast) 20S proteasome, …
[4] = biological target: T2, T. acidophilum (Archaea) 20S …

Row | Protein | in vitro degradation of oxidized calmodulin by purified mammalian 20S proteasomes [1] | in vitro degradation of α-synuclein by purified mammalian 20S proteasomes [1] | time-dependent degradation of α-synuclein by the 20S proteasome, SDS-PAGE with image analysis [2] | degradation of α-synuclein by the 20S proteasome, SDS-PAGE time course [3] | degradation of α-synuclein by the 20S proteasome, SDS-PAGE time course [4]
1 | human PGDH with a C-terminal 6His tag (protein) MHVNGKVALVTGAAQGIGRAFAEALLLKGAKVALVDWNLEAGVQCKAALDEQFEPQKTLFIQCDVADQQQLRDTFRKVVDHFGRLDILVNNAGVNNEKNWEKTLQINLVSVISGTYLGLDYMSKQNGGEGGIIINMSSLAGLMPVAQQPVYCASKHGIVGFTRSAALAANLMNSGVRLNAICPGFVNTAILESIEKEENMGQYIEYKDHIKDMIKYYGILDPPLIANGLITLIEDDALNGAIMKITTSKGIHFQDYDTTPFQAKTQ | OxCam degradation was inhibited by all the candidates | the majority of the CCRs successfully inhibited the degradation of α-synuclein, with the exception of RBBP9 and HRas |  |  | 
2 | human NQO2 (recombinant, His-TEV fragment removed) (protein) MAGKKVLIVYAHQEPKSFNGSLKNVAVDELSRQGCTVTVSDLYAMNLEPRATDKDITGTLSNPEVFNYGVETHEAYKQRSLASDITDEQKKVREADLVIFQFPLYWFSVPAILKGWMDRVLCQGFAFDIPGFYDSGLLQGKLALLSVTTGGTAEMYTKTGVNGDSRYFLWPLQHGTLHFCGFKVLAPQISFAPEIASEEERKGMVAAWSQRLQTIWKEEPIPCTAHWHFGQ | OxCam degradation was inhibited by all the candidates | the majority of the CCRs successfully inhibited the degradation of α-synuclein, with the exception of RBBP9 and HRas | In the presence of NQO2, CBR3, PGDH, NRas, KRas and RhoA, however, there was a marked decrease in the degradation rate. |  | 
3 | human CBR3 (recombinant, His tag removed) (protein) MSSCSRVALVTGANRGIGLAIARELCRQFSGDVVLTARDVARGQAAVQQLQAEGLSPRFHQLDIDDLQSIRALRDFLRKEYGGLNVLVNNAAVAFKSDDPMPFDIKAEMTLKTNFFATRNMCNELLPIMKPHGRVVNISSLQCLRAFENCSEDLQERFHSETLTEGDLVDLMKKFVEDTKNEVHEREGWPNSPYGVSKLGVTVLSRILARRLDEKRKADRILVNACCPGPVKTDMDGKDSIRTVEEGAETPVYLALLPPDATEPQGQLVHDKVVQNW | OxCam degradation was inhibited by all the candidates | the majority of the CCRs successfully inhibited the degradation of α-synuclein, with the exception of RBBP9 and HRas |  | Human CBR3 inhibited 20S proteasomes from all tested species. | Human CBR3 inhibited 20S proteasomes from all tested species.
4 | human RBBP9 with a C-terminal 6His tag (protein) MASPSKAVIVPGNGGGDVTTHGWYGWVKKELEKIPGFQCLAKNMPDPITARESIWLPFMETELHCDEKTIIIGHSSGAIAAMRYAETHRVYAIVLVSAYTSDLGDENERASGYFTRPWQWEKIKANCPYIVQFGSTDDPFLPWKEQQEVADRLETKLHKFTDCGHFQNTEFHELITVVKSLLKVPA | OxCam degradation was inhibited by all the candidates |  |  |  | 
